From patent publication US20170239346A1, “NOVEL COCAINE HAPTENS AND NANOFIBER-BASED COCAINE VACCINES” (priority 2016, published 2017) come the findings set out here.

The data set can be described thus: Limulus amebocyte lysate (LAL) chromogenic end point endotoxin assay. The conditions noted are these: same volume and concentration used for immunizations.

Residues, ends and D or L forms follow the SMILES beside them. *: point of attachment. X1 = COC(=O)[C@H]1[C@@H](OC(=O)c2ccccc2)C[C@@H]2CC[C@H]1N2CCCCC(=O)*

For the compound `COC(=O)[C@H]1[C@@H](OC(=O)c2ccccc2)C[C@@H]2CC[C@H]1N2CCCCC(=O)NCC(=O)NCC(=O)NCC(=O)N[C@@H](Cc1ccccc1)C(=O)N[C@@H](CCCCN)C(=O)N[C@@H](Cc1ccccc1)C(=O)N[C@@H](CCC(=O)O)C(=O)N[C@@H](Cc1ccccc1)C(=O)N[C@@H](CCCCN)C(=O)N[C@@H](Cc1ccccc1)C(=O)N[C@@H](CCC(=O)O)C(N)=O` [CocKFE8] (X1-GGGFKFEFKFE-NH2), the endotoxin levels result is on record as “less than 0.1 EU/mL”.
